The values that follow come from article PMC5018458 (Bioorganic & medicinal chemistry letters, 2016).

For data set [1], the system named is B16/F1 melanoma. To be noted: 2 h post-injection; cited from earlier work.
Data set [2] concerns M21 human melanoma xenografts. Put plainly: SPECT/CT imaging of M21 human melanoma-xenografted nude mouse. Type of data set: in vivo. To be noted: about 7.4 MBq iv tail vein, 2 h post-injection. (In general: In xenograft studies the graft and the host belong to different species.)
Data set [3] concerns M21 human melanoma-xenografted nude mice. The experiment in a line: Biodistribution in M21 human melanoma-xenografted nude mice. It is filed as in vivo.
Data set [4] relates to M21 human melanoma cells. The experiment in a line: Cellular efflux in M21 human melanoma cells. It is filed as cell-based. To be noted: M21 cells loaded 2 h at 37 °C, then 2 h of incubation in the culture medium.

Consider “hydrazinonicotinamide-8-aminooctanoic acid-Nle-c[Asp-His-DPhe-Arg-Trp-Lys]-CONH2 (sidechain bridge or staple) [^99mTc(EDDA)-HYNIC-AocNle-CycMSHhex]”, for which the “Visualization of B16/F1 melanoma lesions by SPECT/CT” value in data set [1] was “clearly visualized”. For the same substance, in data set [2], the “Visualization of M21 human melanoma xenografts by SPECT/CT” value is “clearly visualized”. Also, the “Uptake ratio Tumor/kidney” value is listed as 0.40 in data set [3] (0.5 h post-injection); 0.71 in data set [3] (2 h post-injection); 0.17 in data set [3] (2 h post-injection, NDP blockade (co-injection of 10 μg NDP-MSH)); 0.95 in data set [3] (4 h post-injection); 1.13 in data set [3] (24 h post-injection). Moreover, the “Tumor uptake blocked by co-injection of non-radioactive NDP-MSH” value in data set [3] (2 h post-injection, 10 μg (6.07 nmol) NDP-MSH co-injected) is on record as 80%. In data set [3] (mouse, in vivo), the “Intestines, percent injected dose” value was determined as 1.65±0.73 %ID. Moreover, the “Urine, percent injected dose (urinary clearance)” value in data set [3] (mouse, in vivo) worked out at 92.23±1.52 %ID. Besides, in data set [4], the “Activity remained inside the cells (cellular efflux)” value is 66%.
